Data published in patent US10654893B2, “Self-assembling peptide compositions” (3-D MATRIX, LTD., priority 2014, dated 2020).

Experiments:
Format in all cases: physicochemical
[1] = Rheometer stress sweep test of peptide compositions at selected concentrations (AR500, 40 mm plates); settings: 37° C.; for Loss Modulus (G″) / Storage Modulus (G′): at 1 Pa of oscillation stress, 10 rad/s; for Max. Viscosity (max η′): maximum in range of measured stress; for Yield Stress: stress sweep 10 rad/s
Description: The present Example further describes measurement of various rheological properties of certain peptide compositions at selected concentrations using a rheometer (AR500, TA Instruments) with 40 mm plates. A peptide composition (700 μL) was placed on the rheometer plate and excess composition was gently removed by Kimwipes. Measurements were performed after 2 minutes of relaxation time at 37° C. Storage modulus, loss modulus, and viscosity (η′) were measured at 37° C. with the plates placed at a measuring geometry gap of 300 μm, and stress sweep tests were performed at 0.1 Pa˜1000 Pa of oscillation stress with angular frequency at 10 rad/s.
Results are shown in FIGS. 2-4 for RADA16 (SEQ ID NO:1), IEIK13 (SEQ ID NO:3), and KLD12 (SEQ ID NO:2).

[2] = Rheological properties (stiffness, storage modulus, viscosity) at selected pH levels
Description: Rheological properties of certain peptide compositions were observed before and after adjusting their pH levels to 3.4 (RADA16 (SEQ ID NO:1) and KLD12 (SEQ ID NO:2)) or 3.7 (IEIK13 (SEQ ID NO:3)). Rheological properties of peptides were evaluated using a rheometer (AR500, TA Instruments) with 40 mm plates. Specifically, a peptide composition (700 μL) was placed on the rheometer plate and excess composition was gently removed by Kimwipes. Measurements were performed after 2 minutes of relaxation time at 37° C. RADA16 (SEQ ID NO:1), KLD12 (SEQ ID NO:2) and IEIK13 (SEQ ID NO:3) compositions at elevated pH were stiffer than those at 2.5 (RADA16 (SEQ ID NO:1)), 2.0 (KLD12 (SEQ ID NO:2)), and 2.1 (IEIK13 (SEQ ID NO:3)).
Storage modulus of certain peptide compositions at selected pH levels were evaluated using a rheometer (DHR-1, TA Instruments) with 20 mm plates. […] Determined storage moduli for tested peptide compositions are shown in FIG. 18 for RADA16 (SEQ ID NO:1) and FIG. 19 for IEIK13 (SEQ ID NO:3), respectively.
Viscosities of 1% IEIK13 (SEQ ID NO:3) compositions at selected pH levels were evaluated using a rheometer (DHR-1, TA Instruments) with 20 mm plates.

[3] = Rheological properties at selected ionic strengths (DHR-1, 20 mm plates)
Text: FIGS. 27-29 show rheological properties measured with a rheometer (DHR-1, TA Instruments) with 20 mm plates when ion strengths are slightly lower than the critical ion strengths. Ion strengths of RADA16 (SEQ ID NO:1), KLD12 (SEQ ID NO:2) and IEIK13 (SEQ ID NO:3) were 0.7 M, 0.2 M and 0.02M, respectively for the measurements. Rheological properties of RADA16 (SEQ ID NO:1), KLD12 (SEQ ID NO:2) and IEIK13 (SEQ ID NO:3) compositions were higher after adjusting their ionic strength levels with NaCl to 0.7 M (RADA16 (SEQ ID NO:1)), 0.2 M (KLD12 (SEQ ID NO:2)) or 0.02 M (IEIK13 (SEQ ID NO:3)).
Rheological properties of peptide compositions at selected ionic strengths were measured using a rheometer (DHR-1, TA Instruments) with 20 mm plates. […] Results are shown in FIG. 30 for RADA16 (SEQ ID NO:1) and in FIG. 31 for IEIK13 (SEQ ID NO:3).
Viscosities of peptide compositions at selected ionic strength levels were evaluated. […] Viscosities of 1% IEIK13 (SEQ ID NO:3) compositions were evaluated using a rheometer (DHR-1, TA Instruments) with 20 mm plates. The results are shown in FIGS. 32A and 32B for IEIK13 (SEQ ID NO:3).

[4] = Congo Red assay of gel formation in PBS solution (pH 7.4); settings: 0.5%, 1.0%, 1.5%, 2.0% and 2.5%
Description: A Congo Red assay was performed to determine gel formation of peptide compositions in a PBS (Phosphate buffered saline) solution (pH 7.4), as shown in FIG. 1. 100 μl of each gel at selected concentrations were plated on a glass slide. After 30 seconds, 500 μl of 1% Congo Red solution was added around and on top of each of the composition aliquots and then the excess Congo Red solution was wiped off prior to examination. RADA16 (SEQ ID NO:1), IEIK13 (SEQ ID NO:3), and KLD12 (SEQ ID NO:2) were plated at selected concentrations of 0.5%, 1.0%, 1.5%, 2.0% and 2.5%. Visual observation determined the success or failure of gelation at each concentration.

[5] = Compositions with 0.9% NaCl at pH 3.4 (combined salt and pH)
Description: IEIK13 (SEQ ID NO:3), KLD12 (SEQ ID NO:2), and RADA16 (SEQ ID NO:1) were dissolved in salt buffer (e.g. NaCl) and kept at elevated pH level adjusted with alkali salt buffer (e.g. NaOH). The compositions had their pH levels about 2.5-4.0 and lower ionic strength than their critical points. With respect to RADA16 (SEQ ID NO:1), KLD12 (SEQ ID NO:2) and IEIK13 (SEQ ID NO:3), peptide compositions were still clear with 0.9% NaCl (i.e. ionic strength of 0.15 M) at pH 3.4 (adjusted with NaOH). Rheological properties of RADA16 (SEQ ID NO:1) with 0.9% NaCl at pH 3.4 were stiffer than those of RADA16 control (i.e. no ionic strength and pH elevation) and RADA16 (SEQ ID NO:1) with 0.9% NaCl (no pH elevation).

In the case of “Arg-Ala-Asp-Ala-Arg-Ala-Asp-Ala-Arg-Ala-Asp-Ala-Arg-Ala-Asp-Ala [RADA16]”, the “Loss Modulus (G″)” value ([1]; Conc. 1%) is reported as 12 Pa, the “Storage Modulus (G′)” value ([1]; Conc. 1%) is reported as 74 Pa and the “Max. Viscosity (max η′)” value ([1]; Conc. 1%) is reported as 2.3 Pa · s. For the same substance, the “Yield Stress” value ([1]; Conc. 1%) was 15.9 Pa, the “Loss Modulus (G″)” value ([1]; Conc. 1.5%) was 30 Pa and the “Storage Modulus (G′)” value ([1]; Conc. 1.5%) was 158 Pa. The “Max. Viscosity (max η′)” value ([1]; Conc. 1.5%) was 3.4 Pa · s, the “Yield Stress” value ([1]; Conc. 1.5%) was 20.0 Pa and the “Loss Modulus (G″)” value ([1]; Conc. 2%) was 39 Pa. For the same substance, the “Storage Modulus (G′)” value ([1]; Conc. 2%) was 217 Pa, the “Max. Viscosity (max η′)” value ([1]; Conc. 2%) was 4.0 Pa · s and the “Yield Stress” value ([1]; Conc. 2%) was 31.6 Pa. For the same substance, the “Loss Modulus (G″)” value ([1]; Conc. 2.5%) was 53 Pa, the “Storage Modulus (G′)” value ([1]; Conc. 2.5%) was 352 Pa and the “Max. Viscosity (max η′)” value ([1]; Conc. 2.5%) was 5.6 Pa · s. For the same substance, the “Yield Stress” value ([1]; Conc. 2.5%) was 50.1 Pa, the “Storage modulus as a function of pH” value ([2]; DHR-1, 20 mm plates, 2.5% RADA16, 1.5% IEIK13 (FIGS. 18, 19)) was “increased with pH increase up to 3.4” and the “Stiffness at elevated pH versus unadjusted pH” value ([2]; pH 3.4 (RADA16, KLD12) or 3.7 (IEIK13) versus 2.5 (RADA16), 2.0 (KLD12), 2.1 (IEIK13), stress sweep) was “stiffer”. The “Rheological properties as a function of ionic strength” value ([3]; 1% compositions, NaCl, decreased at higher ionic strength) was “increased with ionic strength adjustment up to 0.7 M”, the “Rheological properties after adjusting ionic strength with NaCl” value ([3]; NaCl 0.7 M (RADA16), 0.2 M (KLD12), 0.02 M (IEIK13), 1%) was “higher” and the “Rheological properties with NaCl versus KCl and CaCl2” value ([3]; RADA16 compositions with salts) was “slightly higher”. The “Gel formation (success or failure of gelation)” value [4] was “gelled at all concentrations”, the Appearance of composition ([5]; 0.9% NaCl (ionic strength of 0.15 M) at pH 3.4 (adjusted with NaOH)) was “still clear” and the “Stiffness versus control and versus 0.9% NaCl without pH elevation” value ([5]; 0.9% NaCl at pH 3.4, 2.5% (FIG. 40)) was “stiffer”.
